Assay results: patent US9062123B2, “Labelled adrenomedullin derivatives and their use for imaging and therapy” (PLUMOSCIENCE INC., priority 2004, dated 2015)
Like-named read-outs stand apart in the source and are kept apart here.

Tests used:
[1] = Plasma kinetics of 99mTc-cyclic AM and 99mTc-linear AM in dogs; assay type: in vivo, dog; conditions: two-compartment model
Method: The radiolabelled AM derivatives were injected in a volume of 1.5 mL into a right jugular vein catheter. A series of 200 μl blood samples were collected 1 min after the initial injection, then repeated every 5 min for a 30-min period. After each collection, an equal volume of saline was injected into the animal to maintain blood volume and pressure. The blood samples were then placed in a gamma counter (model 1470 Wizard, Wallac, Finland) to determine ^99mTc activity. Results were expressed as a percentage of total radioactivity injected.

[2] = dog, in vivo, iv
Method: Following intravenous injection of linear ^99mTc hAM1-52, dynamic acquisition of the lungs, heart, liver and kidneys was recorded for a 30-min period (one frame/sec during the first minute, then one frame/min for the remaining time). Static acquisitions were also recorded for whole individual organs, including lungs, kidneys, liver, heart, bladder, gallbladder and muzzle, at 30, 60, 120, 240 minutes after initial injection. These recordings were performed both in ventral and dorsal positions. Dynamic and static acquisitions were evaluated by using Matlab version 7.01 image analysis tools software. The ^99mTc total count, ^99mTc mean count, and region of interest (ROI) size were calculated for each organ. Data correction was applied for 1) radioactive decay, 2) table correction (dorsal images only), 3) geometric mean, and 4) organ's attenuation based on transmission factor. Results were expressed as a percentage of total radioactivity injected.

[3] = rat, in vivo
Text: The animals were then sacrificed and the lungs, liver, kidneys (en bloc with the adrenal glands) and heart were removed and gravity drained.

[4] = dog, in vivo
Method: FIG. 16 illustrates in vivo single-pass measurement of purified ^99mTc linear hAM1-52 clearance in dogs. Dogs were anesthetized and a catheter was inserted into the carotid artery and positioned just above the aortic valve. This catheter is connected to a peristaltic pump for automated blood withdrawal. Another catheter is placed into the jugular vein and positioned in the right ventricular outflow tract to allow bolus injection of the study tracers. A bolus was prepared by adding 2 mCi of purified ^99mTc linear hAM1-52 to 3 ml of Evans blue dye labeled albumin and 0.9% saline for a final volume of 6 ml. A single bolus indicator-dilution experiment was performed. The collected samples were processed and indicator-dilution curves constructed and analysed. Mean tracer ^99mTc linear hAM1-52 AM extraction during the pulmonary transit time was computed from the curves. Mean tracer extraction corresponds to the difference between the areas of the outflow curve of the vascular reference (albumin) and that of the extracted tracer (^99mTc linear hAM1-52). Recirculation of the tracers apparent in the terminal portion of the curves is removed by linear extrapolation of the semi-logarithmic down slopes.

[5] = Kidney uptake of 99mTc-linear AM in rats with monocrotaline kidney damage; assay type: in vivo, rat; conditions: for kidney activity, % of total activity injected: external counting of the organs; for kidney uptake, % of total activity injected: external detection by gamma camera, 30 minutes
Method: Kidney damage was induced by a single intraperitoenal injection of monocrotaline 60 mg/kg in rats. Three weeks later the animal received were anaesthetized and mechanically ventilated. […] By both methods, the activity in the kidneys was expressed as a percentage of the total activity injected.

[6] = for plasma level: after 10 minutes
Method: The animals were anesthetized by an initial intra-muscular dose of xylazine (10 mg/kg) and ketamine (50 mg/kg), followed by an intraperitoneal injection of heparin (2000 U, Sigma Chemical Co.). Additional doses of xylazine/ketamine were used if noxious stimuli (hind feet pinching) could elicit nociceptive motor reflexes or changes of the systemic blood pressure.
99mTc-AM-L was injected in a volume of 200 μl (0.3 pmol, 0.5 mCi) into the right jugular vein.
Differences between groups were evaluated by two-tailed independent samples t-tests. Plasma kinetics of ^99mTc-AM-L were analyzed using a two compartments pharmacokinetic model with Prism v4.0 software and the fitted curves were compared using an F test. All values are reported as means±standard deviations.

[7] = in vivo
Text: FIGS. 18 and 19 illustrate respectively images of the lungs of a dog and a rat to which purified ^99mTc linear hAM1-52 has been administered.

[8] = dog, in vivo; remark: listed apart in the source
Method: Following intravenous injection, dynamic acquisition of the lungs, heart, liver and kidneys was recorded for a 30-min period (one frame/sec during the first minute, then one frame/min for the remaining time). Static acquisitions was also recorded for whole individual organs, including lungs, kidneys, liver, heart, bladder, gallbladder and muzzle, at 30, 60, 120, 240 minutes after initial injection. These recordings were performed both in ventral and dorsal positions. Dynamic and static acquisitions were evaluated by using Matlab version 7.01 image analysis tools software. The ^99mTc total count, ^99mTc mean count, and region of interest (ROI) size were calculated for each organ. Data correction was applied for 1) radioactive decay, 2) table correction (dorsal images only), 3) geometric mean, and 4) organ's attenuation based on transmission factor. Results were expressed as a percentage of total radioactivity injected.
The images were acquired using a Siemens dual hear Ecam Gamma camera 120 min after injection of the compound.

In the case of `CC[C@H](C)[C@H](NC(=O)[C@H](CCC(N)=O)NC(=O)[C@H](Cc1c[nH]cn1)NC(=O)[C@H](C)NC(=O)[C@H](CC(C)C)NC(=O)[C@H](CCCCN)NC(=O)[C@H](CCC(N)=O)NC(=O)[C@@H](NC(=O)[C@@H](NC(=O)[C@@H]1CSSC[C@H](NC(=O)CNC(=O)[C@H](Cc2ccccc2)NC(=O)[C@H](CO)NC(=O)[C@H](CCCNC(=N)N)NC(=O)[C@H](CC(C)C)NC(=O)CNC(=O)[C@H](CCC(N)=O)NC(=O)[C@H](Cc2ccccc2)NC(=O)[C@H](CC(N)=O)NC(=O)[C@H](CC(N)=O)NC(=O)[C@H](CCSC)NC(=O)[C@H](CO)NC(=O)[C@H](CCC(N)=O)NC(=O)[C@H](CCCNC(=N)N)NC(=O)[C@H](Cc2ccc(O)cc2)NC(=O)CN(CCN(CCN(CC(=O)O)CC(=O)O)CC(=O)O)CC(=O)O)C(=O)N[C@@H](CCCNC(=N)N)C(=O)N[C@@H](Cc2ccccc2)C(=O)NCC(=O)N[C@@H]([C@@H](C)O)C(=O)N1)[C@@H](C)O)C(C)C)C(=O)N[C@@H](Cc1ccc(O)cc1)C(=O)N[C@@H](CCC(N)=O)C(=O)N[C@@H](Cc1ccccc1)C(=O)N[C@H](C(=O)N[C@@H](CC(=O)O)C(=O)N[C@@H](CCCCN)C(=O)N[C@@H](CC(=O)O)C(=O)N[C@@H](CCCCN)C(=O)N[C@@H](CC(=O)O)C(=O)N[C@@H](CC(N)=O)C(=O)N[C@H](C(=O)N[C@@H](C)C(=O)N1CCC[C@H]1C(=O)N[C@@H](CCCNC(=N)N)C(=O)N[C@@H](CO)C(=O)N[C@@H](CCCCN)C(=O)N[C@H](C(=O)N[C@@H](CO)C(=O)N1CCC[C@H]1C(=O)N[C@@H](CCC(N)=O)C(=O)NCC(=O)N[C@@H](Cc1ccc(O)cc1)C(N)=O)[C@@H](C)CC)C(C)C)[C@@H](C)O` [^99mTc-cyclic AM, metal not drawn], the distribution half-life [1] was “less than two min”.
In the case of “^99mTc-linear AM: linear hAM(1-52) labelled directly with 99mTc”, the lung retention [2] was 24%, the lung retention [3] was “significantly retained by lungs” and the route of elimination [3] was “eliminated by the kidneys (mostly) and the liver”. For the same molecule, the thyroid uptake [3] was “minimal”, the “time for which lung uptake is maintained” value [3] was “at least 1 hour” and the “mean single pass extraction by the lung” value [4] was 21%. The “kidney activity, % of total activity injected” value ([5]; control rats) was 27%±6%, the “kidney uptake, % of total activity injected” value ([5]; control rats) was 23%±3% and the “kidney activity, % of total activity injected” value ([5]; monocrotaline treated rats) was 11%±7%. The “kidney uptake, % of total activity injected” value ([5]; monocrotaline treated rats) was 10%±6%, the plasma level ([6]; PAH (MCT) rats) was 2.08±0.65 % ID and the plasma level ([6]; control rats) was 1.25±0.28 % ID. The “plasma levels in PAH compared to control animals” value ([6]; fitted curves, rats) was “approximately two-fold higher”, the “pulmonary uptake, image” value ([7]; dog) was “relatively specific and homogeneous pulmonary uptake” and the “pulmonary uptake, image” value ([7]; rat) was “relatively specific and homogeneous pulmonary uptake”. For the same molecule, the kidney retention [8] was 20-30%, the “kidney retention, whole body imaging” value [8] was “significantly retained by the kidney” and the “reduction in kidney uptake after MCT” value (MCT versus control rats) was “about 50%”. The “heart uptake, ex vivo” value (PAH (MCT) rats) was 0.77±0.46 % ID, the “lung uptake, in vivo biodistribution” value (PAH (MCT) rats, gamma camera, 30 minutes) was 4±1% and the “lung retention, ex vivo” value (PAH (MCT) rats, gamma counter, 30 minutes) was 3±1%. The “reduction in lung uptake in PAH” value (PAH versus control rats) was roughly 70%, the “heart uptake, ex vivo” value (rat, in vivo) was 0.18±0.03 % ID and the “lung retention, ex vivo” value (rat, in vivo) was 11±2 % ID. For the same molecule, the “liver, kidney and bladder activities, MCT group compared to control group” value (rats, 30 minutes) was “increased liver uptake but lower kidney and bladder activities”.
